3 molecules from paper doi:10.1101/293530 can be followed below.

In one experiment the target is mCherry-IZ-sCD95L. Briefly: fluorescence correlation spectroscopy.
The target of another experiment is mCherry-sCD95L. Description: fluorescence correlation spectroscopy.
Experiment [1] concerns the target T1, CD95-mEos2 (human), P25445.
T1 chain: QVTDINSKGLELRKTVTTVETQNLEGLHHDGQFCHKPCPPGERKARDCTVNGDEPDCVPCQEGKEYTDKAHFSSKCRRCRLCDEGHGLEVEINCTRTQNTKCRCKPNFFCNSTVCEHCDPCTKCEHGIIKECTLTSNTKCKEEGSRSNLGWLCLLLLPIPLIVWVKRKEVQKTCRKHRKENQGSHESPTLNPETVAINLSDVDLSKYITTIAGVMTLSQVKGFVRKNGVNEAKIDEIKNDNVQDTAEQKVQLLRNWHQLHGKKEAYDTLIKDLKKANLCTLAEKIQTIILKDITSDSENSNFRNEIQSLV
Briefly: quantitative PALM. The settings on record: remark: other sources report otherwise.

In general, stoichiometry N refers to the number of molecules, sites or subunits per partner or assembly.

The molecule mCherry-IZ-sCD95L (ligand) returned a stoichiometry N in the experiment with mCherry-IZ-sCD95L of 3.

With mCherry-sCD95L (ligand), the stoichiometry N with mCherry-sCD95L stood at 3.

B1: CD95-mEos2, P25445 26-335 (receptor)
chain: T1 chain
Consider B1, for which, in experiment [1], the fraction of dimers came to 42% and the fraction of monomers was 58%.
